Assay results reported in US20130071375A1.
Values joined by “and” are separate entries in the source; they are usually repeats but may differ in a detail not shown here. Equal values may be shown once.

Legend:
[1] = target: Endothelial protein C receptor (human) (UniProt Q9UNN8); assay: cell-based or functional assay
[2] = target: Protease-activated receptor 1 (human) (UniProt P25116); assay: cell-based or functional assay
Protease-activated receptor 1 (human), sequence (P25116 42-425): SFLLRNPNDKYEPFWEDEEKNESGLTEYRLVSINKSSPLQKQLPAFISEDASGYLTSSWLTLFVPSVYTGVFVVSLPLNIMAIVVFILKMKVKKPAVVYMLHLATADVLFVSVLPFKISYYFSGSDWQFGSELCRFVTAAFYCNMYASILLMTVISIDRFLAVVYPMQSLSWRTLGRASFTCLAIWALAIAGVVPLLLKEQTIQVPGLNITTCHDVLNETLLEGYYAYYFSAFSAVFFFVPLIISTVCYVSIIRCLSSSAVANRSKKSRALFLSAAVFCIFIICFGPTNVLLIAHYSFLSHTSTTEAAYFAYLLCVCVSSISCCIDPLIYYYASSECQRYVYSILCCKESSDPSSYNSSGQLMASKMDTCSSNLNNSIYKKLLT

Endothelial protein C receptor (human), sequence (Q9UNN8 18-238): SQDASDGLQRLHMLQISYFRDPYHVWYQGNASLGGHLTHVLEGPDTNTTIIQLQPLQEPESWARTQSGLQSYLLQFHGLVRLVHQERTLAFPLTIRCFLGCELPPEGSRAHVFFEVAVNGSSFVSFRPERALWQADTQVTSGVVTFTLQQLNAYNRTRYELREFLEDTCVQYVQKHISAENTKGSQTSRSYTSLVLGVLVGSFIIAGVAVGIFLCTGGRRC

Substance	inhibition of LPS (100 ng/mL)-mediated HMGB1 release by HUVECs (ELISA) [1]	efficacy relative to APC in inhibiting adherence and migration of THP-1 cells across HMGB1-activated HUVEC monolayer [2] [fold]
Activated protein C (from UniProt P04070 43-461)	> 10 nM and 100 nM	–
PCgla/meizothrombin (meizothrombin with its Gla-domain replaced by that of protein C; Factor Xa-activated PCgla/prothrombin-3A)	< 1 nM	20 to 50
